Test results from patent US7132278.

T1: AMARA peptide, synthetic substrate NH2-AMARAASAAALARRR-CO2H
T1 chain: AMARAASAAALARRR


Target: T1, AMARA peptide, synthetic substrate …

Protein	Km (mM), pre-phosphorylated [mM]	fold lower Km for substrate than the unmodified enzyme	Km (mM), untreated [mM]
human PASK enzyme, wildtype, pre-phosphorylated in the presence of ATP (protein) MEDGGLTAFEEDQRCLSQSLPLPVSAEGPAAQTTAEPSRSFSSAHRHLSRRNGLSRLCQSRTALSEDRWSSYCLSSLAAQNICTSKLHCPAAPEHTDPSEPRGSVSCCSLLRGLSSGWSSPLLPAPVCNPNKAIFTVDAKTTEILVANDKACGLLGYSSQDLIGQKLTQFFLRSDSDVVEALSEEHMEADGHAAVVFGTVVDIISRSGEKIPVSVWMKRMRQERRLCCVVVLEPVERVSTWVAFQSDGTVTSCDSLFAHLHGYVSGEDVAGQHITDLIPSVQLPPSGQHIPKNLKIQRSVGRARDGTTFPLSLKLKSQPSSEEATTGEAAPVSGYRASVWVFCTISGLITLLPDGTIHGINHSFALTLFGYGKTELLGKNITFLIPGFYSYMDLAYNSSLQLPDLASCLDVGNESGCGERTLDPWQGQDPAEGGQDPRINVVLAGGHVVPRDEIRKLMESQDIFTGTQTELIAGGQLLSCLSPQPAPGVDNVPEGSLPVHGEQALPKDQQITALGREEPVAIESPGQDLLGESRSEPVDVKPFASCEDSEAPVPAEDGGSDAGMCGLCQKAQLERMGVSGPSGSDLWAGAAVAKPQAKGQLAGGSLLMHCPCYGSEWGLWWRSQDLAPSPSGMAGLSFGTPTLDEPWLGVENDREELQTCLIKEQLSQLSLAGALDVPHAELVPTECQAVTAPVSSCDLGGRDLCGGCTGSSSACYALATDLPGGLEAVEAQEVDVNSFSWNLKELFFSDQTDQTSSNCSCATSELRETPSSLAVGSDPDVGSLQEQGSCVLDDRELLLLTGTCVDLGQGRRFRESCVGHDPTEPLEVCLVSSEHYAASDRESPGHVPSTLDAGPEDTCPSAEEPRLNVQVTSTPVIVMRGAAGLQREIQEGAYSGSCHHRDGLRLSIQFEVRRVELQGPTPLFCCWLVKDLLHSQRDSAARTRLFLASLPGSTHSTAAELTGPSLVEVLRARPWFEEPPKAVELEGLAACEGEYSQKYSTMSPLGSGAFGFVWTAVDKEKNKEVVVKFIKKEKVLEDCWIEDPKLGKVTLEIAILSRVEHANIIKVLDIFENQGFFQLVMEKHGSGLDLFAFIDRHPRLDEPLASYIFRQLVSAVGYLRLKDIIHRDIKDENIVIAEDFTIKLIDFGSAAYLERGKLFYTFCGTIEYCAPEVLMGNPYRGPELEMWSLGVTLYTLVFEENPFCELEETVEAAIHPPYLVSKELMSLVSGLLQPVPERRTTLEKLVTDPWVTQPVNLADYTWEEVCRVNKPESGVLSAASLEMGNRSLSDVAQAQELCGGPVPGEAPNGQGCLHPGDPRLLTS	0.2	6.5-fold lower Km for substrate than the unmodified enzyme	
human PASK S1273,77,80A, pre-phosphorylated (protein) MEDGGLTAFEEDQRCLSQSLPLPVSAEGPAAQTTAEPSRSFSSAHRHLSRRNGLSRLCQSRTALSEDRWSSYCLSSLAAQNICTSKLHCPAAPEHTDPSEPRGSVSCCSLLRGLSSGWSSPLLPAPVCNPNKAIFTVDAKTTEILVANDKACGLLGYSSQDLIGQKLTQFFLRSDSDVVEALSEEHMEADGHAAVVFGTVVDIISRSGEKIPVSVWMKRMRQERRLCCVVVLEPVERVSTWVAFQSDGTVTSCDSLFAHLHGYVSGEDVAGQHITDLIPSVQLPPSGQHIPKNLKIQRSVGRARDGTTFPLSLKLKSQPSSEEATTGEAAPVSGYRASVWVFCTISGLITLLPDGTIHGINHSFALTLFGYGKTELLGKNITFLIPGFYSYMDLAYNSSLQLPDLASCLDVGNESGCGERTLDPWQGQDPAEGGQDPRINVVLAGGHVVPRDEIRKLMESQDIFTGTQTELIAGGQLLSCLSPQPAPGVDNVPEGSLPVHGEQALPKDQQITALGREEPVAIESPGQDLLGESRSEPVDVKPFASCEDSEAPVPAEDGGSDAGMCGLCQKAQLERMGVSGPSGSDLWAGAAVAKPQAKGQLAGGSLLMHCPCYGSEWGLWWRSQDLAPSPSGMAGLSFGTPTLDEPWLGVENDREELQTCLIKEQLSQLSLAGALDVPHAELVPTECQAVTAPVSSCDLGGRDLCGGCTGSSSACYALATDLPGGLEAVEAQEVDVNSFSWNLKELFFSDQTDQTSSNCSCATSELRETPSSLAVGSDPDVGSLQEQGSCVLDDRELLLLTGTCVDLGQGRRFRESCVGHDPTEPLEVCLVSSEHYAASDRESPGHVPSTLDAGPEDTCPSAEEPRLNVQVTSTPVIVMRGAAGLQREIQEGAYSGSCHHRDGLRLSIQFEVRRVELQGPTPLFCCWLVKDLLHSQRDSAARTRLFLASLPGSTHSTAAELTGPSLVEVLRARPWFEEPPKAVELEGLAACEGEYSQKYSTMSPLGSGAFGFVWTAVDKEKNKEVVVKFIKKEKVLEDCWIEDPKLGKVTLEIAILSRVEHANIIKVLDIFENQGFFQLVMEKHGSGLDLFAFIDRHPRLDEPLASYIFRQLVSAVGYLRLKDIIHRDIKDENIVIAEDFTIKLIDFGSAAYLERGKLFYTFCGTIEYCAPEVLMGNPYRGPELEMWSLGVTLYTLVFEENPFCELEETVEAAIHPPYLVSKELMSLVSGLLQPVPERRTTLEKLVTDPWVTQPVNLADYTWEEVCRVNKPEAGVLAAAALEMGNRSLSDVAQAQELCGGPVPGEAPNGQGCLHPGDPRLLTS	0.3		
human PASK enzyme, wildtype, untreated (unmodified, as purified from baculovirus-infected Sf-9 cells) (protein) MEDGGLTAFEEDQRCLSQSLPLPVSAEGPAAQTTAEPSRSFSSAHRHLSRRNGLSRLCQSRTALSEDRWSSYCLSSLAAQNICTSKLHCPAAPEHTDPSEPRGSVSCCSLLRGLSSGWSSPLLPAPVCNPNKAIFTVDAKTTEILVANDKACGLLGYSSQDLIGQKLTQFFLRSDSDVVEALSEEHMEADGHAAVVFGTVVDIISRSGEKIPVSVWMKRMRQERRLCCVVVLEPVERVSTWVAFQSDGTVTSCDSLFAHLHGYVSGEDVAGQHITDLIPSVQLPPSGQHIPKNLKIQRSVGRARDGTTFPLSLKLKSQPSSEEATTGEAAPVSGYRASVWVFCTISGLITLLPDGTIHGINHSFALTLFGYGKTELLGKNITFLIPGFYSYMDLAYNSSLQLPDLASCLDVGNESGCGERTLDPWQGQDPAEGGQDPRINVVLAGGHVVPRDEIRKLMESQDIFTGTQTELIAGGQLLSCLSPQPAPGVDNVPEGSLPVHGEQALPKDQQITALGREEPVAIESPGQDLLGESRSEPVDVKPFASCEDSEAPVPAEDGGSDAGMCGLCQKAQLERMGVSGPSGSDLWAGAAVAKPQAKGQLAGGSLLMHCPCYGSEWGLWWRSQDLAPSPSGMAGLSFGTPTLDEPWLGVENDREELQTCLIKEQLSQLSLAGALDVPHAELVPTECQAVTAPVSSCDLGGRDLCGGCTGSSSACYALATDLPGGLEAVEAQEVDVNSFSWNLKELFFSDQTDQTSSNCSCATSELRETPSSLAVGSDPDVGSLQEQGSCVLDDRELLLLTGTCVDLGQGRRFRESCVGHDPTEPLEVCLVSSEHYAASDRESPGHVPSTLDAGPEDTCPSAEEPRLNVQVTSTPVIVMRGAAGLQREIQEGAYSGSCHHRDGLRLSIQFEVRRVELQGPTPLFCCWLVKDLLHSQRDSAARTRLFLASLPGSTHSTAAELTGPSLVEVLRARPWFEEPPKAVELEGLAACEGEYSQKYSTMSPLGSGAFGFVWTAVDKEKNKEVVVKFIKKEKVLEDCWIEDPKLGKVTLEIAILSRVEHANIIKVLDIFENQGFFQLVMEKHGSGLDLFAFIDRHPRLDEPLASYIFRQLVSAVGYLRLKDIIHRDIKDENIVIAEDFTIKLIDFGSAAYLERGKLFYTFCGTIEYCAPEVLMGNPYRGPELEMWSLGVTLYTLVFEENPFCELEETVEAAIHPPYLVSKELMSLVSGLLQPVPERRTTLEKLVTDPWVTQPVNLADYTWEEVCRVNKPESGVLSAASLEMGNRSLSDVAQAQELCGGPVPGEAPNGQGCLHPGDPRLLTS			1.3
human PASK S1149A, pre-phosphorylated (protein) MEDGGLTAFEEDQRCLSQSLPLPVSAEGPAAQTTAEPSRSFSSAHRHLSRRNGLSRLCQSRTALSEDRWSSYCLSSLAAQNICTSKLHCPAAPEHTDPSEPRGSVSCCSLLRGLSSGWSSPLLPAPVCNPNKAIFTVDAKTTEILVANDKACGLLGYSSQDLIGQKLTQFFLRSDSDVVEALSEEHMEADGHAAVVFGTVVDIISRSGEKIPVSVWMKRMRQERRLCCVVVLEPVERVSTWVAFQSDGTVTSCDSLFAHLHGYVSGEDVAGQHITDLIPSVQLPPSGQHIPKNLKIQRSVGRARDGTTFPLSLKLKSQPSSEEATTGEAAPVSGYRASVWVFCTISGLITLLPDGTIHGINHSFALTLFGYGKTELLGKNITFLIPGFYSYMDLAYNSSLQLPDLASCLDVGNESGCGERTLDPWQGQDPAEGGQDPRINVVLAGGHVVPRDEIRKLMESQDIFTGTQTELIAGGQLLSCLSPQPAPGVDNVPEGSLPVHGEQALPKDQQITALGREEPVAIESPGQDLLGESRSEPVDVKPFASCEDSEAPVPAEDGGSDAGMCGLCQKAQLERMGVSGPSGSDLWAGAAVAKPQAKGQLAGGSLLMHCPCYGSEWGLWWRSQDLAPSPSGMAGLSFGTPTLDEPWLGVENDREELQTCLIKEQLSQLSLAGALDVPHAELVPTECQAVTAPVSSCDLGGRDLCGGCTGSSSACYALATDLPGGLEAVEAQEVDVNSFSWNLKELFFSDQTDQTSSNCSCATSELRETPSSLAVGSDPDVGSLQEQGSCVLDDRELLLLTGTCVDLGQGRRFRESCVGHDPTEPLEVCLVSSEHYAASDRESPGHVPSTLDAGPEDTCPSAEEPRLNVQVTSTPVIVMRGAAGLQREIQEGAYSGSCHHRDGLRLSIQFEVRRVELQGPTPLFCCWLVKDLLHSQRDSAARTRLFLASLPGSTHSTAAELTGPSLVEVLRARPWFEEPPKAVELEGLAACEGEYSQKYSTMSPLGSGAFGFVWTAVDKEKNKEVVVKFIKKEKVLEDCWIEDPKLGKVTLEIAILSRVEHANIIKVLDIFENQGFFQLVMEKHGSGLDLFAFIDRHPRLDEPLASYIFRQLVSAVGYLRLKDIIHRDIKDENIVIAEDFTIKLIDFGAAAYLERGKLFYTFCGTIEYCAPEVLMGNPYRGPELEMWSLGVTLYTLVFEENPFCELEETVEAAIHPPYLVSKELMSLVSGLLQPVPERRTTLEKLVTDPWVTQPVNLADYTWEEVCRVNKPESGVLSAASLEMGNRSLSDVAQAQELCGGPVPGEAPNGQGCLHPGDPRLLTS	0.6		
